{
  "source": "patent US20230312751A1",
  "about": "“Anti-Fibrotic Combination” (Engitix Limited, priority 2020, published 2023)",
  "molecules": {"B1": {"name": "chymase: human chymase, mast cell serine protease, added exogenously to stimulate hepatic stellate cells (protein, UniProt P23946 22-247, looked up)", "Chymase": "IIGGTECKPHSRPYMAYLEIVTSNGPSKFCGGFLIRRNFVLTAAHCAGRSITVTLGAHNITEEEDTWQKLEVIKQFRHPKYNTSTLHHDIMLLKLKEKASLTLAVGTLPFPSQFNFVPPGRMCRVAGWGRTGVLKPGSDTLQEVKLRLMDPQACSHFRDFDHNLQLCVGNPRKTKSAFKGDSGGPLLCAGVAQGIVSYGRSDAKPPAVFTRISHYRPWINQILQAN"}},
  "type_in_all_cases": "cell-based",
  "key": {"[1]": {"system": "Primary human hepatic stellate cells (HSCs)", "assay": "Deposited collagen type I in stimulated HSCs, immunofluorescence (Example 8)", "procedure": "Primary human hepatic stellate cells (HSCs) were grown for 2 days. Cells were maintained in serum-free media for 48 h and subsequently stimulated with either human chymase (C) at 100 ng/mL, human tryptase (T) alone at 1000 ng/mL) or in combination (C 100 ng T 1000 ng) as indicated for a further 48 h. TGFβ1 served as a positive control, and serum-free conditions (SFM) as a negative control.\nFollowing stimulation, media was removed and the cells washed in PBS and fixed with Formalin 4% for 15 min. Cells and extracellular proteins were stained with Rb ANTI-Col I (Novus Biologicals, NB600-408, 1:500) and images were acquired at 20× using a confocal microscope."}, "Primary human HSCs [2]": {"system": "Primary human HSCs", "assay": "Secretion of pro-fibrogenic factors by stimulated HSCs, Luminex (Example 9)", "settings": "48 h", "procedure": "Primary human HSCs were grown to confluence and maintained in growth media for 10 days. Cells were maintained in serum-free media for 48 h and subsequently stimulated with either human Chymase (30, 100 or 300 ng/mL), human tryptase alone (300, 1000, 3000 ng/mL) or in combination with chymase for a further 48 h. The TGFβ1 (3 ng/mL) served as a positive control and serum-free conditions as a negative control. Media was removed after 48 h and levels of secreted IGFBP-3, Tenascin C, Collagen IV and Endostatin levels were determined by Luminex."}, "[3]": {"system": "Primary human hepatic stellate cells (HSCs)", "assay": "Collagen type I production by stimulated HSCs, western blot (Example 7)", "settings": "48 h stimulation, chymase 30, 100 or 300 ng/mL, tryptase 300, 1000, 3000 ng/mL, alone or in combination", "procedure": "Primary human hepatic stellate cells (HSCs) were grown to confluence and maintained in growth media for 10 days. Cells were maintained in serum-free media for 48 h and subsequently stimulated with either human chymase alone (30, 100 or 300 ng/mL), human tryptase alone (300, 1000, 3000 ng/mL) or human chymase and tryptase in combination as indicated for a further 48 h. The PAR2 agonist at 10 or 100 ng/mL and TGFb1 (3 ng/mL) served as a positive control, whilst serum-free conditions provided a negative control.\nMedia was removed and the cells and extracellular proteins deposited lysed in RIPA buffer."}, "Primary human HSCs [4]": {"system": "Primary human HSCs", "assay": "Active/latent TGFβ in HSC conditioned media, TGFb-responsive luciferase reporter cells (Example 10)", "settings": "conditioned media heated at 80° C. for 10 minutes; chymase 100 (C2) and 30 ng/mL (C3)", "procedure": "Primary human HSCs were grown to confluence and maintained in growth media for 10 days. Cells were maintained in serum-free media for 48 h and subsequently stimulated with either human Chymase (30, 100 or 300 ng/mL), human tryptase (300, 1000, 3000 ng/mL) or both in combination as indicated for a further 48 h. The TGFb1 (3 ng/mL) served at positive control and serum-free conditions as a negative control.\nConditioned media was collected and either transferred directly to cells harbouring a TGFb-responsive promoter linked to the firefly luciferase reporter gene for 24 h to determine the levels of active TGFb present in media, or conditioned media was heated at 80° C. for 10 minutes in order to activate in the conditioned media the latent TGFb into active TGFb present. The addition of exogenous TGFb1 (1 ng/mL served as a positive control. Cells were lysed after 24 h and levels of latent or active TGFb determined by measuring luciferase activity. The results are shown in FIG. 11."}, "[5]": {"settings": "chymase 100 ng/mL, tryptase 1000 ng/mL, 48 h"}},
  "note": "“Also recorded” adds a separate entry of the source.",
  "data": [
    {"molecule": "B1", "values": [
      {"measurement": "cell number (nuclear stain Hoechst)", "setting": "[1]; C100 ng/mL, T1000 ng/mL, C100/T1000 ng/mL, relative to serum-free medium and TGF-beta controls", "value": "no effect"},
      {"measurement": "deposited collagen type I (collagen area / immunofluorescence intensity normalised to cell number) relative to SFM", "setting": "[1]; [5]", "value": "did not induce a significant change"},
      {"measurement": "distribution of deposited collagen type I compared to serum-free alone (SFM)", "setting": "[1]; [5]", "value": "change in distribution; also recorded: altered collagen distribution patterns"},
      {"measurement": "secreted IGFBP3", "setting": "Primary human HSCs [2]; regardless of concentration", "value": "marked increase"},
      {"measurement": "secreted Tenascin C", "setting": "Primary human HSCs [2]; chymase 30, 100 or 300 ng/mL", "value": "concentration-dependent increase"},
      {"measurement": "secreted collagen IV", "setting": "Primary human HSCs [2]; chymase 30, 100 or 300 ng/mL", "value": "concentration-dependent increase"},
      {"measurement": "secreted endostatin", "setting": "Primary human HSCs [2]; chymase at all concentrations", "value": "significant increase"},
      {"measurement": "collagen type I protein compared to basal levels in untreated cells", "setting": "[3]", "value": "marked increase"},
      {"measurement": "secreted latent TGFβ in conditioned media", "setting": "Primary human HSCs [4]", "value": "increases"}
    ]}
  ]
}
